Results published in publication PMC5961129.

How the values were obtained:
PUF-12R = PUF-12R (human, engineered, UniProt Q14671 828-1027+992-1142+1028-1176, internal_change); test: FP
PUF-9R [1] = target: T1, PUF-9R (human, engineered, UniProt Q14671 828-955+1028-1142+1028-1176, internal_change); test: crystal structure
PUF-9R [2] = target: T1, PUF-9R; test: FP
PUF-10R = PUF-10R (human, engineered, UniProt Q14671 828-955+992-1142+1028-1176, internal_change); test: FP
PUF-8R N1080Y = PUF-8R N1080Y (human, UniProt Q14671 828-1176, N1080Y); test: FP
PUF-8R H972Y = PUF-8R H972Y (human, UniProt Q14671 828-1176, H972Y); test: FP
PUF-8R R1008Y = PUF-8R R1008Y (human, UniProt Q14671 828-1176, R1008Y); test: FP
[3] = target: PUF-8R (Pumilio1 PUF domain, wild type) (human, UniProt Q14671 828-1176); test: FP

## AAUUGUUGUAAUAUAUUC (ssRNA) [12nt-RNA]
PUF-12R
  binding result: binds

## UGUUGUAUA (ssRNA) [RNA-9nt (crystal)]
PUF-9R [1]
  binding result: binds

## AAUUGUUGUAUAUUC (ssRNA) [9nt-RNA]
PUF-9R [2]
  binding signal: ~12 fold Ka vs PUF-8R:RNA-8nt

## AAUUGUUGUAAUAUUC (ssRNA) [10nt-RNA]
PUF-10R
  binding signal: ~7 fold Ka vs PUF-8R:RNA-8nt

## AAUUGUAUAUAUUC (ssRNA) [8nt-RNA]
PUF-8R N1080Y
  binding signal: > 8 fold Ka vs PUF-8R R1008N
PUF-8R H972Y
  binding result: binds
PUF-8R R1008Y
  binding result: binds
[3]
  binding result: binds
